For assay [1], the target named is T1, FLG (human, UniProt P20930 1-4061, limits assumed).
T1 construct: also called NP_002007.1
Nature of the assay: co-IP with anti-FLAG, C-FLAG B3GNT2, mass spectrometry.

Assay [2] addresses T2, MMS19 (human, UniProt Q96T76-9 2-987, limits assumed).
T2 construct: also called NP_001276332.1 (+9)
T2 sequence (looked up): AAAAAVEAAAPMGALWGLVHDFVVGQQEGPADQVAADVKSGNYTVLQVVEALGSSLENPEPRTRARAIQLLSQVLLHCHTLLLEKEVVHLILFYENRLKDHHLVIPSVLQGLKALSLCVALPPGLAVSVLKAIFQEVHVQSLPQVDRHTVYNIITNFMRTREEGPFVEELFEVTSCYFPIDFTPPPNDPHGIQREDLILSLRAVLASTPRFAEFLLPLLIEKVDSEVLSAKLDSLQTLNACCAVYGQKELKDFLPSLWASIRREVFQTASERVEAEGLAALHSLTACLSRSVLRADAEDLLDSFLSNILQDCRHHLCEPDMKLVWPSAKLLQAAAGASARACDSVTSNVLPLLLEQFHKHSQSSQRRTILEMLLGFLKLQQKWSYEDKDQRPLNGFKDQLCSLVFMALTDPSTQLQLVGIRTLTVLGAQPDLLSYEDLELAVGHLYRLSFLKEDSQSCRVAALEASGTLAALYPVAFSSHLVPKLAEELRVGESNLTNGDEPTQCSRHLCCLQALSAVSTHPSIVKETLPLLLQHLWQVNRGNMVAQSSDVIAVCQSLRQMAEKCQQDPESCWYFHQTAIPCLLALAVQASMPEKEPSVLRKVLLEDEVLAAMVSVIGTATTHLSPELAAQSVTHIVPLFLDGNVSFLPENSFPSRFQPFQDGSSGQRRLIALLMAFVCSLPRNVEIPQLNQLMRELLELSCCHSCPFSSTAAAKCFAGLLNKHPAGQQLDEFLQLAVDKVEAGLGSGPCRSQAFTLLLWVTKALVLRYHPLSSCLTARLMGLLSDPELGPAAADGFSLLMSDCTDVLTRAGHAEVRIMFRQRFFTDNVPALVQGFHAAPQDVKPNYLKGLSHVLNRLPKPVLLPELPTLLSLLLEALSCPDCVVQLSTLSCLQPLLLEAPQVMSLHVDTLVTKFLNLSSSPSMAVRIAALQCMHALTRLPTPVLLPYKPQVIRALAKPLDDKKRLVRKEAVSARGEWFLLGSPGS
The description is as above.

Assay [3] addresses T3, PLOD1 (human, UniProt Q02809 19-727).
T3 construct: also called NP_000293.2 (+1)
T3 sequence (looked up): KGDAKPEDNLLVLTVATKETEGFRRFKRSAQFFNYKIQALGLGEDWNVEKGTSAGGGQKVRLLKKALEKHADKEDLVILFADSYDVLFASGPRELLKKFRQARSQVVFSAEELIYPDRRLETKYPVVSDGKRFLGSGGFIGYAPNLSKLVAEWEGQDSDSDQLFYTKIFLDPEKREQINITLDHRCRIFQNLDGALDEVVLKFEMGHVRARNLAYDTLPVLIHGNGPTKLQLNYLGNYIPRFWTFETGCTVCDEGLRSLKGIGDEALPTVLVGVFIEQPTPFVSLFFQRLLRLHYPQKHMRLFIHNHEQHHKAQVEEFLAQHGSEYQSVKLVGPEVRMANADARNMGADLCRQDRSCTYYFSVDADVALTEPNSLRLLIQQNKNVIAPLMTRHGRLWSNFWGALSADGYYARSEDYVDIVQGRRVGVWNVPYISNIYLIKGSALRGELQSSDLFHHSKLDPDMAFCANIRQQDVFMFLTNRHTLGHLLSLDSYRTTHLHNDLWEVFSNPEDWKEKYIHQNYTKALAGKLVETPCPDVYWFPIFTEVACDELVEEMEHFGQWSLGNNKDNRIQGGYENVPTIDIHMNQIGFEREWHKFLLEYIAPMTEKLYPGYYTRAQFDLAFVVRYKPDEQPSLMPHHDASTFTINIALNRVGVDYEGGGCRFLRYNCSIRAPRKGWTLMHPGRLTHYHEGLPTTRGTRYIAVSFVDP
The experiment in a line: co-IP with anti-FLAG, N-FLAG B3GNT2, mass spectrometry. How it is done: (§1) Cells were plated in 10-cm cell culture dishes and grown to 60-80% confluency. For each condition, two biological replicates were harvested for co-IP. Cells were washed with PBS and 4 mL of lysis buffer (20 mM HEPES, 1% Triton X-100, 150 mM NaCl, 1 mM EDTA, and 10% glycerol) containing protease inhibitor cocktail was added. Cells were scraped and lysate was incubated at 4° C. under rotary agitation for 1 h. Lysate was centrifuged at 14,000×g for 10 min at 4° C. Supernatant was transferred to a new tube and an aliquot was taken as the input. […] For Western blots, 10 μg/mL Chicken Anti-FLAG (Aves labs ET-DY100) and IgY control (R&D Systems AB-101-C) antibodies were biotinylated (Thermo Fisher Scientific 90407) and added to the respective conditions. Lysates with antibodies were incubated at 4° C. under rotary agitation overnight. For each mL of lysate, 50 μL of Pierce Protein A/G Magnetic Beads (Mass spectrometry; Thermo Fisher Scientific 88803) or Pierce Streptavidin Magnetic Beads (Western blot; Thermo Fisher Scientific 88817) was washed twice with lysis buffer. Lysates with antibodies were added to the beads and incubated at 4° C. under rotary agitation for 4 h. Beads were washed with lysis buffer 3 times and resuspended in lysis buffer for storage.
(§2) Magnetic beads were resuspended in 100 mM Tris pH 7.8, reduced, alkylated and digested with trypsin at 37° ° C. overnight. This solution was subjected to solid phase extraction to concentrate the peptides and remove unwanted reagents followed by injection onto a Shimadzu HPLC with fraction collector. Eight fractions were collected and after concentration were injected on a Waters NanoAcquity HPLC equipped with a self-packed Aeris 3 μm C18 analytical column 0.075 mm by 20 cm, (Phenomenex). Peptides were eluted using standard reverse-phase gradients. The effluent from the column was analyzed using a Thermo Orbitrap Elite mass spectrometer (nanospray configuration) operated in a data dependent manner for 54 minutes. The resulting fragmentation spectra were correlated against the known database using Proteome Discover 1.4 (Thermo Fisher Scientific).

The target in assay [4] is T4, RUVBL2 (human, UniProt Q9Y230 2-463).
T4 construct: also called NP_006657.1
The assay is described as above. How it is done: as §1, §2

Three molecules from patent US20240261333A1 (published 2024) can be followed below.

T4 sequence (Q9Y230 2-463 limits assumed): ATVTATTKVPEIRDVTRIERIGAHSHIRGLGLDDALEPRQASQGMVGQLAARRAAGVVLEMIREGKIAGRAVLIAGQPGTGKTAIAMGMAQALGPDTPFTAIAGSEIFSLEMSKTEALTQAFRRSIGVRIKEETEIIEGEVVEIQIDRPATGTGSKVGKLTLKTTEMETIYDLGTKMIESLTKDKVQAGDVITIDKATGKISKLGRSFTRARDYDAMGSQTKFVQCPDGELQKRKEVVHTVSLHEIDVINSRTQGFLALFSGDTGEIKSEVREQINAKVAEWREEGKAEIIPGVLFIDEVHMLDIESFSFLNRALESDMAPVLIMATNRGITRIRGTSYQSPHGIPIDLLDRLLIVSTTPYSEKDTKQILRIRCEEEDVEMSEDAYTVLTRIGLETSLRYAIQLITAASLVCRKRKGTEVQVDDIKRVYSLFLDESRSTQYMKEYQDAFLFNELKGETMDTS
T1 sequence (P20930 whole entry): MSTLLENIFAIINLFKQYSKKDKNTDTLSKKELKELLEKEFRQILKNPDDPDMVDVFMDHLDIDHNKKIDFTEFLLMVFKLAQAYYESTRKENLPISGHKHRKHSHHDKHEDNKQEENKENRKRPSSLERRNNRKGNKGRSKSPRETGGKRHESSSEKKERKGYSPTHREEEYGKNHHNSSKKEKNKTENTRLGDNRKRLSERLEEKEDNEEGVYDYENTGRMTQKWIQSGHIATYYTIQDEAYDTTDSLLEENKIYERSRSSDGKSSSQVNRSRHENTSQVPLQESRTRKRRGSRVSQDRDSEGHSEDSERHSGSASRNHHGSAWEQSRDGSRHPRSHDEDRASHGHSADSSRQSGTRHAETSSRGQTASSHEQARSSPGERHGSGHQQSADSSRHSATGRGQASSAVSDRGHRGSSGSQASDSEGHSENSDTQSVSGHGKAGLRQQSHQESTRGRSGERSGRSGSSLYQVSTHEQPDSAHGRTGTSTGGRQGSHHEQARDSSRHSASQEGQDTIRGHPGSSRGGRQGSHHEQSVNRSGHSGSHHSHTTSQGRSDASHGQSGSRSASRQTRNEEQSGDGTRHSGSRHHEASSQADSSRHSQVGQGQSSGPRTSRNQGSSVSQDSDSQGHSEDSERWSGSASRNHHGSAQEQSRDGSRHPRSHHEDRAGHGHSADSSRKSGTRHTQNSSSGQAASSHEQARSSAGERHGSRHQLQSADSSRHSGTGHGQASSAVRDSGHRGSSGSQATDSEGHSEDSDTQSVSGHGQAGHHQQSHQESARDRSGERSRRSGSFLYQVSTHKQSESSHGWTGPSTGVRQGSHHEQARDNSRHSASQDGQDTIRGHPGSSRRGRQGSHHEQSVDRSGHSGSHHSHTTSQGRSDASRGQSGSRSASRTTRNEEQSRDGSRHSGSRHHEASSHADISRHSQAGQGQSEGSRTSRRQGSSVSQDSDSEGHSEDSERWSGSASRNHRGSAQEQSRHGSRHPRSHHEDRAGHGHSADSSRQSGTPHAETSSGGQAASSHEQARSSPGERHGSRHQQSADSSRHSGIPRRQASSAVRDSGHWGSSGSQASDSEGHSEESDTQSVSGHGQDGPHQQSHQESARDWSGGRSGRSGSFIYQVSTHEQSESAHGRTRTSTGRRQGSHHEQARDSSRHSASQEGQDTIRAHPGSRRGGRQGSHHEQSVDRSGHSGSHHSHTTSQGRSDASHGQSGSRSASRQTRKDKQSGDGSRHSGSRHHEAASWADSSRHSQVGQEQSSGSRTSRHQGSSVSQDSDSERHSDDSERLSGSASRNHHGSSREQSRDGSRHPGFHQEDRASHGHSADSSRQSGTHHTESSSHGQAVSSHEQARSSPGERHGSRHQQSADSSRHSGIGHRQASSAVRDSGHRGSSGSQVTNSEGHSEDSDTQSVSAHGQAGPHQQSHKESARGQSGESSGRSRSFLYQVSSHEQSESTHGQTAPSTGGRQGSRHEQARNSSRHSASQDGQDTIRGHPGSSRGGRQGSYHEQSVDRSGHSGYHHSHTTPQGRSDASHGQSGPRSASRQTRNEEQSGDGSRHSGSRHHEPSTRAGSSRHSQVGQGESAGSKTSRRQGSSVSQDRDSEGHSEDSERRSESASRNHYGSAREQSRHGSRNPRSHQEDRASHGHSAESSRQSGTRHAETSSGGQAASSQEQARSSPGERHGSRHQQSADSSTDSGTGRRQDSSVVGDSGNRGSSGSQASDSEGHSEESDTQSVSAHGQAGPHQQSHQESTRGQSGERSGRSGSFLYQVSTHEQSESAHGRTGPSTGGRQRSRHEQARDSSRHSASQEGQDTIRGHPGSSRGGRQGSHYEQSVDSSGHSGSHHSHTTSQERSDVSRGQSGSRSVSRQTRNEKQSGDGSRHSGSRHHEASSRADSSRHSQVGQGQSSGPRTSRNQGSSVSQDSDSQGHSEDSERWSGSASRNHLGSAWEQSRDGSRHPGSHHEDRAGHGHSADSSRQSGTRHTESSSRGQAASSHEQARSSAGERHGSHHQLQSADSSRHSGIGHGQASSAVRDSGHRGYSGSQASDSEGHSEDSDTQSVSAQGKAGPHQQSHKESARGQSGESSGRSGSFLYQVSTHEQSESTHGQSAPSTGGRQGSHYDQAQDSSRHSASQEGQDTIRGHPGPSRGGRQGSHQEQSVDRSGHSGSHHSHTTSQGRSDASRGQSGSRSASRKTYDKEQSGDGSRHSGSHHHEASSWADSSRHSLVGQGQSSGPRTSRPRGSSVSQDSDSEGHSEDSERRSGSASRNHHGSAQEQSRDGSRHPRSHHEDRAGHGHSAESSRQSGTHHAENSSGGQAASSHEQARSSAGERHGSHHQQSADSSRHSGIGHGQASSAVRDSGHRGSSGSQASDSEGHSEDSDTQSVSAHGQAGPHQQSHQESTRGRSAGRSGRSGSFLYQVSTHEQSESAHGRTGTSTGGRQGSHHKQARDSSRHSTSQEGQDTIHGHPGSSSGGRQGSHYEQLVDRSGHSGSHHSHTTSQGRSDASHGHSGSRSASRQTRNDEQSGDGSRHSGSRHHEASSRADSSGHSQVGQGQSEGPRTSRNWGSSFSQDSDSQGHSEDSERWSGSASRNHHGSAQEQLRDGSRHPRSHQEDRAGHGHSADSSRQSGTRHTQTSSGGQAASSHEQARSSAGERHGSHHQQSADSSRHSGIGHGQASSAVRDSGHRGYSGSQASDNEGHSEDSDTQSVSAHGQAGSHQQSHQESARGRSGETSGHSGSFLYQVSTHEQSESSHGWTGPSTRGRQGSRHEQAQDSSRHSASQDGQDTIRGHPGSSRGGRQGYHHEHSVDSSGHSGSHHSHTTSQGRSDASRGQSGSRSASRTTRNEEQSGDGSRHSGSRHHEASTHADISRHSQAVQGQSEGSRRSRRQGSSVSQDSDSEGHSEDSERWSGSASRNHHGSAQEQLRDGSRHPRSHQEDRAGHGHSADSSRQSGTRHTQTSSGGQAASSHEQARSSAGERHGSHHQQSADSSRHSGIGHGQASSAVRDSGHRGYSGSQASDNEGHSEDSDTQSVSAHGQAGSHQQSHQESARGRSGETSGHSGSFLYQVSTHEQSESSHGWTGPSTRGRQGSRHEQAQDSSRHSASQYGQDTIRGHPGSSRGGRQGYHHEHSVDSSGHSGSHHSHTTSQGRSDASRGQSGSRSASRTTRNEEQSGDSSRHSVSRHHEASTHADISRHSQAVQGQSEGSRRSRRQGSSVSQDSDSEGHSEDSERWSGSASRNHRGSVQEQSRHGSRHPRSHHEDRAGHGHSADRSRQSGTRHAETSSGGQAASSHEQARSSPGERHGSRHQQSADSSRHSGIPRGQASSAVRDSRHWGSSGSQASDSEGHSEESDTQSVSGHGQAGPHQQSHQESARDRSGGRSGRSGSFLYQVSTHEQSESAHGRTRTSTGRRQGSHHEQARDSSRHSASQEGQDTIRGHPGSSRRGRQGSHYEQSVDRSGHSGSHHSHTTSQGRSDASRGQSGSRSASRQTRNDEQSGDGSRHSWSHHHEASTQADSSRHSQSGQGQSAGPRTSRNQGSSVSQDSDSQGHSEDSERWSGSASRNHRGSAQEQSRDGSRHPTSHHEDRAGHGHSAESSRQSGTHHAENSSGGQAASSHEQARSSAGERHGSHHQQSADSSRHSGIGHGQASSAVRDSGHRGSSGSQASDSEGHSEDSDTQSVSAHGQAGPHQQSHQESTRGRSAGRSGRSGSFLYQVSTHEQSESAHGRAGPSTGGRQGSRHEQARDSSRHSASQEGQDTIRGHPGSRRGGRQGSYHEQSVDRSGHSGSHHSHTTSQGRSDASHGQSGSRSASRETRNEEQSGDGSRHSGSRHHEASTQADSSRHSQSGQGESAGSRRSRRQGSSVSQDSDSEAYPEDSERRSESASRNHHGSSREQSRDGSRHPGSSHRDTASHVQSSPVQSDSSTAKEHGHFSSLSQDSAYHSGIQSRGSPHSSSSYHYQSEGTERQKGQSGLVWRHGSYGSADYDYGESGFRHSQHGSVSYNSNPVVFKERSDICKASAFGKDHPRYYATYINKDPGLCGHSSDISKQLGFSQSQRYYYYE

B1: C-terminal FLAG tagged B3GNT2 (enzyme, human, UniProt Q9NY97 1-397, looked up)
chain: MSVGRRRIKLLGILMMANVFIYFIMEVSKSSSQEKNGKGEVIIPKEKFWKISTPPEAYWNREQEKLNRQYNPILSMLTNQTGEAGRLSNISHLNYCEPDLRVTSVVTGFNNLPDRFKDFLLYLRCRNYSLLIDQPDKCAKKPFLLLAIKSLTPHFARRQAIRESWGQESNAGNQTVVRVFLLGQTPPEDNHPDLSDMLKFESEKHQDILMWNYRDTFFNLSLKEVLFLRWVSTSCPDTEFVFKGDDDVFVNTHHILNYLNSLSKTKAKDLFIGDVIHNAGPHRDKKLKYYIPEVVYSGLYPPYAGGGGFLYSGHLALRLYHITDQVHLYPIDDVYTGMCLQKLGLVPEKHKGFRTFDIEEKNKNNICSYVDLMLVHSRKPQEMIDIWSQLQSAHLKC
notes: FLAG-tagged ORF overexpressed in cells; pulled down from lysate with mouse anti-FLAG; also called C-FLAG B3GNT2; C-term flag; not shown: C-terminal FLAG tag
Take B1: in assay [1], the “co-IP mass spectrometry count” value is 22.

B2: C-terminal FLAG tagged B3GNT2 (enzyme, human, UniProt Q9NY97 1-397, looked up)
chain: MSVGRRRIKLLGILMMANVFIYFIMEVSKSSSQEKNGKGEVIIPKEKFWKISTPPEAYWNREQEKLNRQYNPILSMLTNQTGEAGRLSNISHLNYCEPDLRVTSVVTGFNNLPDRFKDFLLYLRCRNYSLLIDQPDKCAKKPFLLLAIKSLTPHFARRQAIRESWGQESNAGNQTVVRVFLLGQTPPEDNHPDLSDMLKFESEKHQDILMWNYRDTFFNLSLKEVLFLRWVSTSCPDTEFVFKGDDDVFVNTHHILNYLNSLSKTKAKDLFIGDVIHNAGPHRDKKLKYYIPEVVYSGLYPPYAGGGGFLYSGHLALRLYHITDQVHLYPIDDVYTGMCLQKLGLVPEKHKGFRTFDIEEKNKNNICSYVDLMLVHSRKPQEMIDIWSQLQSAHLKC
notes: FLAG-tagged ORF overexpressed in A375 cells; pulled down from the lysate with mouse anti-FLAG; also called C-FLAG B3GNT2; C-term flag; not shown: C-terminal FLAG tag
For the molecule B2, in assay [2], the “co-IP/MS count, C-term flag” value is 0.

B3: N-terminal FLAG tagged B3GNT2 (enzyme, human, UniProt Q9NY97 1-397, looked up)
chain: MSVGRRRIKLLGILMMANVFIYFIMEVSKSSSQEKNGKGEVIIPKEKFWKISTPPEAYWNREQEKLNRQYNPILSMLTNQTGEAGRLSNISHLNYCEPDLRVTSVVTGFNNLPDRFKDFLLYLRCRNYSLLIDQPDKCAKKPFLLLAIKSLTPHFARRQAIRESWGQESNAGNQTVVRVFLLGQTPPEDNHPDLSDMLKFESEKHQDILMWNYRDTFFNLSLKEVLFLRWVSTSCPDTEFVFKGDDDVFVNTHHILNYLNSLSKTKAKDLFIGDVIHNAGPHRDKKLKYYIPEVVYSGLYPPYAGGGGFLYSGHLALRLYHITDQVHLYPIDDVYTGMCLQKLGLVPEKHKGFRTFDIEEKNKNNICSYVDLMLVHSRKPQEMIDIWSQLQSAHLKC
notes: FLAG-tagged ORF overexpressed in A375 cells; pulled down from the lysate with mouse anti-FLAG; also called N-FLAG B3GNT2; N-term FLAG; not shown: N-terminal FLAG tag
Take B3: the “co-IP/MS count, N-term FLAG” value in assay [3] and in assay [4] was 0 throughout.
